Reference: patent publication WO2015109212A1 (dated 2015)
One block for each binder: values may come before it.

What was measured:
[1] = molecular target: T1, Human IL-2 (Humanzyme, HumanKine IL-2) (human, UniProt P60568 21-153); assay: SPR (Biacore T200), antibody captured, human IL-2 injected
T1 construct: Bought; also called hIL-2

[2] = molecular target: T2, mouse IL-2 (Peprotech #212-12) (mouse, UniProt P04351 21-169); assay: told in Example 10; method not named there (SPR in Example 4)
T2 construct: Bought
T2 sequence (looked up): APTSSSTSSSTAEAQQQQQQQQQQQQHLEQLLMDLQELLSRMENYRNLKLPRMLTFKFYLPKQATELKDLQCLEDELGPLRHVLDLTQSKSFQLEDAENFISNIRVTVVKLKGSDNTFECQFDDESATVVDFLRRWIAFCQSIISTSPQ

T1 sequence (P60568 21-153 limits assumed): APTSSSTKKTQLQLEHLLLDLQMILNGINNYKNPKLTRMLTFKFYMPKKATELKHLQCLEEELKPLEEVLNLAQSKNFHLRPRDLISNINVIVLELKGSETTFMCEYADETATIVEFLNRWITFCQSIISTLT

- binding result [1]: binds
- binding result [2]: binds
B1: 24E7 (antibody, IgG1, V domains shown)
VH: QVQLVQSGAEVKKPGESLKISCKGSGYSFTSYWIGWVRQMPGKGLEWMGIIYPGDSDTRYSPSFQGQVTISADKSISTAYLQWSSLKASDTAMYYCARETLAAVGSNYYYYGMDVWGQGTTVTVSS
VL: SYELTQPPSVSVSPGQTARITCSGDALPRKYAYWYQQKSGQAPVLVIYEDSKRPSGIPERFSGSSSGTMATLTISGAQVEDEADYYCYSTDRSGNFWVFGGGTKVTVL
notes: also called mAb 24E7

- binding result [1]: binds
- binding result [2]: binds
B2: 16B2 (antibody, IgG1, V domains shown)
VH: QVQLVQSGAEVKKPGASVKVSCKASGYTFTSYGISWVRQAPGQGLEWMGWISAYNGNTNYAQKLQGRVTMTTDTSTSTAYMELRSLRSDDTAVYYCAREGAIYYDSSGYYFPFDYWGQGTLVTVSS
VL: SYELTQPPSVSVSPGQTARITCSGDALPRKFAYWYQQKSGQAPVMVIYGDSKRPPGIPERFSGSSSGTMATLTITGAQVEDEADYYCYSTDSGGDVSVFGGGTKLTVL
notes: also called mAb 16B2
